Data as given in patent EP2468863A1.

Biological target: CEACAM1 expressed on transfected cells (CHO-CEACAM1, HeLa CC1, HeLa-CC1H) (human) (UniProt P13688)
Test: cell-based or functional assay

Sequence of UniProt P13688 (P13688 35-526): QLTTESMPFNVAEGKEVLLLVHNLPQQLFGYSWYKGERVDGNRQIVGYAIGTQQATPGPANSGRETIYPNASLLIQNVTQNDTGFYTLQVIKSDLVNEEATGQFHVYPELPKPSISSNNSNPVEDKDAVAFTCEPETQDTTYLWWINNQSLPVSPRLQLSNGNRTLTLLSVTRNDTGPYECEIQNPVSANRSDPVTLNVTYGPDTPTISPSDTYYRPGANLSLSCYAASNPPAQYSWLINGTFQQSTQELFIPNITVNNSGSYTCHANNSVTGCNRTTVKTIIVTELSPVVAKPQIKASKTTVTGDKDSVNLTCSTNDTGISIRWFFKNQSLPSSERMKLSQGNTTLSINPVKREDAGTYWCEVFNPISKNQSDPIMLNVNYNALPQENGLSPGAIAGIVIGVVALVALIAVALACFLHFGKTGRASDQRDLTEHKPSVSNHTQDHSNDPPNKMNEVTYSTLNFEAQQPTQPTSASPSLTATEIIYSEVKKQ

recombinant UspA1 fragment 4-7 (peptide)
inhibition of binding of H. influenzae to CHO-CEACAM1 transfectants: 10 µg per ml
inhibition of binding of M. catarrhalis strain MX1 to CHO-CEACAM1 transfectants: 1 µg/mL
